Consider one molecule from publication PMC2033583, “Temperature sensitivity for conformation is an intrinsic property of wild-type p53”.

The data set concerns the target p53 (murine wild-type) (mouse, UniProt P02340 1-390). Kind of data set: EMSA; 1,10-phenanthroline, 20 min at 30 C; PAb 421; at least partially resistant to chelator; EMSA on 4% polyacrylamide gels with PAb 421, reticulocyte lysate p53 pre-exposed to OP 20 min at 30 or 37 C; binding buffer, salt and pH not given (as in Hainaut and Milner 1993b). As to conditions: protein: ivt; chain copies: 4; label: 32P. In general terms: A gel shift assay detects complexes by their altered migration in electrophoresis.

p53 (murine wild-type), sequence (P02340 whole entry): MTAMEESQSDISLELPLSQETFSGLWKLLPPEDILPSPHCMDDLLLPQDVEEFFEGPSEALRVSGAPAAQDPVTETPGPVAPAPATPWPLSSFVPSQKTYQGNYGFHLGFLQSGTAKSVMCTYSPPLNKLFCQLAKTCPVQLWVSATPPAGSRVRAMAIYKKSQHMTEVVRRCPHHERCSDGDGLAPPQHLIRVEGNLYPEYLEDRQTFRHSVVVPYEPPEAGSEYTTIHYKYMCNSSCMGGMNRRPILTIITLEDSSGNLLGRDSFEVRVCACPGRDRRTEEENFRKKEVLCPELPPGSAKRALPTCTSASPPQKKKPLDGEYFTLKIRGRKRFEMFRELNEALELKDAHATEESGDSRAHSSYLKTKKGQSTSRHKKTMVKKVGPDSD

B1: p53 CON (dsDNA)
DNA 1: GGGCATGTCCGGGCATGTCC
DNA 2: GGACATGCCCGGACATGCCC
In the case of B1, the binding result is given as “binds”.
